From patent US11001838B2, “Platform for screening phosphomevalonate decarboxylase” (The Regents of the University of California, priority 2017, dated 2021)
Like-named read-outs stand apart in the source and are kept apart here.

How the values were obtained:
[1] = biological target: T1, Saccharomyces cerevisiae diphosphomevalonate decarboxylase (PMDsc), wild type, SEQ ID NO: 1 (Saccharomyces cerevisiae, UniProt P32377); set-up: His tag; made in house; host or cells: E. coli (Rosetta (DE3) is stated for the mutant plasmids); conditions: Kang et al., 2016, Krepkiy and Miziorko, 2004, cited from earlier work
T1 sequence (P32377 1-396): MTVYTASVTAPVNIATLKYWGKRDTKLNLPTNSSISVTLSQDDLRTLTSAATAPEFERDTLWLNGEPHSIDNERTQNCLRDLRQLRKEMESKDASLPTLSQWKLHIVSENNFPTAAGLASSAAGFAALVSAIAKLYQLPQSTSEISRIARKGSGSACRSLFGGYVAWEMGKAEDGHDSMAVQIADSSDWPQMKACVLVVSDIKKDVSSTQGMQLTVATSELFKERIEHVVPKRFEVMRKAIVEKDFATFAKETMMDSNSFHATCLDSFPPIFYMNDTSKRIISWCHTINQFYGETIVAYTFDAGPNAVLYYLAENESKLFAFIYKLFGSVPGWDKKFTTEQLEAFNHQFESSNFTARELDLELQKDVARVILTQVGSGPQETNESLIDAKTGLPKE

DH1 = assay: Fosmidomycin sensitivity of E. coli strain DH1; format: cell-based
Procedure: Fosmidomycin sensitivity was tested by introducing various amounts of fosmidomycin into DH1, BW25113 and BL21, three E. coli strains commonly used for microbial metabolic engineering. […] At higher concentrations of fosmidomycin, cell death was accelerated in DH1, supported by a fast reduction in optical density (OD) at 600 nm after approximately two hours of exposure to fosmidomycin. On the other hand, both BL21 and BW25113 continued to grow for approximately four hours when exposed to equivalent fosmidomycin levels. Therefore, DH1 was selected as a host strain to screen PMD mutants for improved MVAP decarboxylation activity and subsequent isopentenol production in this study.

[2] = biological target: T1, Saccharomyces cerevisiae diphosphomevalonate decarboxylase (PMDsc), wild type, SEQ ID NO: 1; assay: In vitro kinetics of MVAP decarboxylation by PMDsc WT (pyruvate kinase/lactate dehydrogenase coupled assay)
Procedure: (§1) This turnover number (kobs) depends upon each mutant's kcat, KM, and KI, yielding a more accurate assessment of the turnover conditions in vivo (Kang et al., 2016).
(§2) In vitro enzyme kinetics of PMDsc were performed as described in the previous study (Kang et al., 2016). Briefly, enzymatic activity was determined by a spectrophotometric assay quantifying ADP product formation via the pyruvate kinase/lactate dehydrogenase coupled enzyme assay. Assay mixtures were prepared in 150 μL total volume containing 50 mM HEPES-KOH (pH 7.5), 10 mM MgCl2, 400 μM phosphoenolpyruvate, 400 μM NADH, 4 mM ATP, and 25 U of pyruvate kinase/lactate dehydrogenase. The reaction was initiated by enzyme after incubating PMDsc substrate and cofactor for fifteen minutes with coupled assay components. The MVAP was varied from 0.100-4.0 mM, and the reaction velocity was determined by monitoring the absorbance at 340 nm in a Spectramax 384plus microplate reader (Molecular Devices, USA). To obtain kinetic data relevant to non-competitive substrate inhibition, MVAP was varied from 0.100-100 mM. Enzyme concentration (ε=56,630 M^−1 cm^−1) was determined spectrophotometrically at 280 nm with a NanoDrop ND-1000 spectrophotometer. kcat and KM were derived for PMDsc mutants by fitting the initial velocities measured from 0.100-4.0 mM MVAP to the Michaelis-Menten equation; KI was determined for select mutants by fitting initial velocities measured from 0.100-100 mM MVAP to the non-competitive substrate inhibition equation. All kinetic analysis was performed in Graphpad Prism, version 7.0a.

[3] = biological target: T2, Saccharomyces cerevisiae diphosphomevalonate decarboxylase (PMDsc, SEQ ID NO: 1) variant R74G (Saccharomyces cerevisiae, UniProt P32377, R74G); assay: In vitro kinetics of MVAP decarboxylation by PMDsc R74G (coupled assay)
T2 sequence (P32377 1-396 R74G): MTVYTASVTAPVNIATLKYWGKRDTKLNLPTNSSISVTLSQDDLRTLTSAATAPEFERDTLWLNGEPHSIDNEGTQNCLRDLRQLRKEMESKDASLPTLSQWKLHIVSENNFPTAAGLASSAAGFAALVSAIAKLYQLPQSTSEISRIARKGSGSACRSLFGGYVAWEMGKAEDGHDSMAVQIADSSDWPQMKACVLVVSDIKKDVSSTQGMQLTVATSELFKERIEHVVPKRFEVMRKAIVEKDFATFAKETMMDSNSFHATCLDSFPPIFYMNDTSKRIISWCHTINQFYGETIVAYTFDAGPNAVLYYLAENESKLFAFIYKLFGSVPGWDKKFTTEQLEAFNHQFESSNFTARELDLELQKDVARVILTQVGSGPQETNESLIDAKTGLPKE
Procedure: as §1, §2

[4] = biological target: T3, Saccharomyces cerevisiae diphosphomevalonate decarboxylase (PMDsc, SEQ ID NO: 1) variant M212Q (Saccharomyces cerevisiae, UniProt P32377, M212Q); assay: In vitro kinetics of MVAP decarboxylation by PMDsc M212Q (coupled assay); format: biochemical; conditions: MVAP 0.100-4.0 mM, 4 mM ATP, pH 7.5; brackets: standard error
T3 construct: His tag; made in house; host or cells: E. coli Rosetta (DE3)
T3 sequence (P32377 1-396 M212Q): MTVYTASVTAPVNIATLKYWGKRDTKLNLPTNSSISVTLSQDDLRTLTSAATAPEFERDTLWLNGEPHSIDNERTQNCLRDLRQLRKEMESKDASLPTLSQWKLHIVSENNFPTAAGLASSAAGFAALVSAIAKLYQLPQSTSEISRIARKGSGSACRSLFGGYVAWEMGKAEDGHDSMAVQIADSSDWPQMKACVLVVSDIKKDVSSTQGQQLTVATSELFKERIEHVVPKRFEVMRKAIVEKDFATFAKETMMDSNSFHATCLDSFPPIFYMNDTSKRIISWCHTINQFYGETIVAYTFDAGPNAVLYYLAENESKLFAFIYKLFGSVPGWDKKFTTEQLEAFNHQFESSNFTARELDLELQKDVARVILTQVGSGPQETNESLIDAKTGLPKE

[5] = biological target: T4, Saccharomyces cerevisiae diphosphomevalonate decarboxylase (PMDsc, SEQ ID NO: 1) variant Y19H (Saccharomyces cerevisiae, UniProt P32377, Y19H); assay: In vitro kinetics of MVAP decarboxylation by PMDsc Y19H (coupled assay); format: biochemical
T4 construct: His tag; made in house; host or cells: E. coli Rosetta (DE3)
T4 sequence (P32377 1-396 Y19H): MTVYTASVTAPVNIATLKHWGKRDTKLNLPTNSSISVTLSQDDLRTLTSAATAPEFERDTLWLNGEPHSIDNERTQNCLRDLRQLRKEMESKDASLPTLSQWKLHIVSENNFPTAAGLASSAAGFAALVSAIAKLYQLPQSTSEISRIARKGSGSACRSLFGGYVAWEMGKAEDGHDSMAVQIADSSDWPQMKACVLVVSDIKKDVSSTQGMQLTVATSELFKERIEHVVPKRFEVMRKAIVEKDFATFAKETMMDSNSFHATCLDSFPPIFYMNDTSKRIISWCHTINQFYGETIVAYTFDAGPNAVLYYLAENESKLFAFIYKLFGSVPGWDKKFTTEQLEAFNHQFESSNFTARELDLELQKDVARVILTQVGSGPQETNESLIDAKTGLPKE

[6] = previous study (Kang 2015); cited from earlier work
E. coli DH1 [7] = conditions: cited from earlier work
E. coli DH1 [8] = assay: Isopentenol production in E. coli via IPP-bypass MVA pathway (GC-FID); format: cell-based, Escherichia coli
[9] = substrate: C[C@@](O)(CCOP(=O)(O)O)CC(=O)O; assay: In vitro kinetics of MVAP decarboxylation by PMDsc R74H (coupled assay); format: biochemical, Saccharomyces cerevisiae; conditions: other: MVAP 0.100-4.0 mM, 4 mM ATP, pH 7.5, brackets: standard error
E. coli DH1 [10] = assay: Growth of E. coli DH1 under the screening conditions (MEP pathway blocked by fosmidomycin, IPP-bypass pathway + IPK)
[11] = substrate: C[C@@](O)(CCOP(=O)(O)O)CC(=O)O; assay: In vitro kinetics of MVAP decarboxylation by PMDsc K22Y (coupled assay); format: biochemical, Saccharomyces cerevisiae; conditions: other: MVAP 0.100-4.0 mM, 4 mM ATP, pH 7.5, brackets: standard error
[12] = substrate: C[C@@](O)(CCOP(=O)(O)O)CC(=O)O; assay: In vitro kinetics of MVAP decarboxylation by PMDsc Y19H (coupled assay); format: biochemical, Saccharomyces cerevisiae; conditions: other: MVAP 0.100-4.0 mM, 4 mM ATP, pH 7.5, brackets: standard error
[13] = MVAP 0.100-4.0 mM, 4 mM ATP, pH 7.5, brackets: standard error
[14] = observed turnover number calculated at 100 mM MVAP, noncompetitive substrate inhibition
[15] = Table 2, screening conditions, standard deviation in brackets

C[C@@](O)(CCOP(=O)(O)OP(=O)(O)O)CC(=O)O [MVAPP, mevalonate 5-diphosphate]
kcat (MVAPP) ([1]; original substrate MVAPP): 5.4 s⁻¹

O=CN(O)CCCP(=O)(O)O [fosmidomycin]
growth on fosmidomycin (DH1; 10 μM fosmidomycin): no growth
exposure time until fast reduction in OD at 600 nm (DH1; higher concentrations of fosmidomycin): approximately two

C[C@@](O)(CCOP(=O)(O)O)CC(=O)O [MVAP, mevalonate 5-phosphate]
kcat (MVAP) ([1]; alternative substrate MVAP): 0.14 s⁻¹
Km [2, 13]: 2300 µM
kcat [2, 13]: 0.15 s⁻¹
kobs [2, 14]: 0.02 s⁻¹
kcat [3, 13]: 0.14 s⁻¹
kobs [3, 14]: 0.07 s⁻¹
kcat/KM [4]: 500 ± 100 M⁻¹ s⁻¹
kcat/KM [5, 13]: 780 ± 60 M⁻¹ s⁻¹
increase of kcat/KM compared to wild type ([5]; Y19H versus wild type PMDsc, MVAP): about 10 fold

B1: Saccharomyces cerevisiae diphosphomevalonate decarboxylase (PMDsc, SEQ ID NO: 1) variant R74H (Saccharomyces cerevisiae S288C; R74H) (protein)
chain: MTVYTASVTAPVNIATLKYWGKRDTKLNLPTNSSISVTLSQDDLRTLTSAATAPEFERDTLWLNGEPHSIDNEHTQNCLRDLRQLRKEMESKDASLPTLSQWKLHIVSENNFPTAAGLASSAAGFAALVSAIAKLYQLPQSTSEISRIARKGSGSACRSLFGGYVAWEMGKAEDGHDSMAVQIADSSDWPQMKACVLVVSDIKKDVSSTQGMQLTVATSELFKERIEHVVPKRFEVMRKAIVEKDFATFAKETMMDSNSFHATCLDSFPPIFYMNDTSKRIISWCHTINQFYGETIVAYTFDAGPNAVLYYLAENESKLFAFIYKLFGSVPGWDKKFTTEQLEAFNHQFESSNFTARELDLELQKDVARVILTQVGSGPQETNESLIDAKTGLPKE
notes: His tag; made in house; host or cells: E. coli Rosetta (DE3)
activity of WT for phosphomevalonate (MVAP) [6]: 220%
isopentenol titer (E. coli DH1 [7]; from a previous study (Kang et al., 2016)): 770.3 mg/L
48 hr Titer (isopentenol) (E. coli DH1 [8]): 770 (263) mg/L
Km [9]: 0.75 (0.05) mM
kcat [9]: 0.33 (0.03) sec^−1
kcat/Km [9]: 0.44 (0.05) mM^−1 sec^−1
competitive growth of mixed culture (WT, K22M, R74H) (E. coli DH1 [10]; 10 μM fosmidomycin, several dilutions, sequencing): dominant strain
Growth rate (E. coli DH1 [10]; 10-fold higher inducer concentration (100 nM aTc)): 0.83±0.01 hr^1
Growth rate (E. coli DH1 [10]; [15]): 0.68 (0.04) hr^−1
Growth rate (E. coli DH1 [10]; screening conditions): 0.68 ± 0.04 h⁻¹
growth under fosmidomycin selection pressure (E. coli DH1 [10]; screening platform): grew faster than the strain with WT PMDsc

B2: Saccharomyces cerevisiae diphosphomevalonate decarboxylase (PMDsc, SEQ ID NO: 1) variant K22Y (Saccharomyces cerevisiae S288C; K22Y) (protein)
chain: MTVYTASVTAPVNIATLKYWGYRDTKLNLPTNSSISVTLSQDDLRTLTSAATAPEFERDTLWLNGEPHSIDNERTQNCLRDLRQLRKEMESKDASLPTLSQWKLHIVSENNFPTAAGLASSAAGFAALVSAIAKLYQLPQSTSEISRIARKGSGSACRSLFGGYVAWEMGKAEDGHDSMAVQIADSSDWPQMKACVLVVSDIKKDVSSTQGMQLTVATSELFKERIEHVVPKRFEVMRKAIVEKDFATFAKETMMDSNSFHATCLDSFPPIFYMNDTSKRIISWCHTINQFYGETIVAYTFDAGPNAVLYYLAENESKLFAFIYKLFGSVPGWDKKFTTEQLEAFNHQFESSNFTARELDLELQKDVARVILTQVGSGPQETNESLIDAKTGLPKE
notes: as for B1
Km [11]: 1.3 (0.3) mM
kcat [11]: 0.09 (0.01) sec^−1
kcat/Km [11]: 0.12 (0.03) mM^−1 sec^−1

B3: T209D (protein)
chain: MTVYTASVTAPVNIATLKYWGKRDTKLNLPTNSSISVTLSQDDLRTLTSAATAPEFERDTLWLNGEPHSIDNERTQNCLRDLRQLRKEMESKDASLPTLSQWKLHIVSENNFPTAAGLASSAAGFAALVSAIAKLYQLPQSTSEISRIARKGSGSACRSLFGGYVAWEMGKAEDGHDSMAVQIADSSDWPQMKACVLVVSDIKKDVSSDQGMQLTVATSELFKERIEHVVPKRFEVMRKAIVEKDFATFAKETMMDSNSFHATCLDSFPPIFYMNDTSKRIISWCHTINQFYGETIVAYTFDAGPNAVLYYLAENESKLFAFIYKLFGSVPGWDKKFTTEQLEAFNHQFESSNFTARELDLELQKDVARVILTQVGSGPQETNESLIDAKTGLPKE
isopentenol titer in E. coli (E. coli DH1 [7]; Kang et al., 2016): did not significantly change the isopentenol titer

B4: Saccharomyces cerevisiae diphosphomevalonate decarboxylase (PMDsc, SEQ ID NO: 1) variant Y19H (Saccharomyces cerevisiae S288C; Y19H) (protein)
chain: MTVYTASVTAPVNIATLKHWGKRDTKLNLPTNSSISVTLSQDDLRTLTSAATAPEFERDTLWLNGEPHSIDNERTQNCLRDLRQLRKEMESKDASLPTLSQWKLHIVSENNFPTAAGLASSAAGFAALVSAIAKLYQLPQSTSEISRIARKGSGSACRSLFGGYVAWEMGKAEDGHDSMAVQIADSSDWPQMKACVLVVSDIKKDVSSTQGMQLTVATSELFKERIEHVVPKRFEVMRKAIVEKDFATFAKETMMDSNSFHATCLDSFPPIFYMNDTSKRIISWCHTINQFYGETIVAYTFDAGPNAVLYYLAENESKLFAFIYKLFGSVPGWDKKFTTEQLEAFNHQFESSNFTARELDLELQKDVARVILTQVGSGPQETNESLIDAKTGLPKE
notes: as for B1
48 hr Titer (isopentenol) (E. coli DH1 [8]): 388 (9) mg/L
isopentenol titer (E. coli DH1 [8]; compared with wild type or library mutants): significantly decreased isopentenol titers
Km [12]: 0.35 (0.02) mM
kcat [12]: 0.27 (0.01) sec^−1
kcat/Km [12]: 0.78 (0.06) mM^−1 sec^−1
Growth rate (E. coli DH1 [10]; [15]): 0.22 (0.01) hr^−1
